{"source": "the DeepSol protein solubility set", "data": [{"assay": "soluble on expression in E. coli; label from the status in PepcDB or PDB records", "values": [{"sequence": "MGSDKIHHHHHHMAFKNLKELSFEKSNYIKPKRFAYESNGRLCTWDFIESKDSVSVLLYHKELESFIFVRQFRIPLWYHQMHDKDYVKDDDMGYTIELCSGLVDKKLSLEEIAKEECIEELGYAPKNLEKIGDFYTGFGSGVSKQSFYFVEVDEKDKISSGGGVDDEEIEAVYVKVQDFEKKCKNMIRTPLLDFAYMWFLKEKWGKLKII", "soluble on expression in E. coli": "not soluble"}, {"sequence": "MGSDKIHHHHHHMAFRGWKKLPIRIETGEMVEAIAPVIVSASRATDIPAFHAEWFMTRLRAGYVQWCNPFNARQTQYVSFRKTRAVIFWSKNPAPLLPHLSELDAIGINYSFQFTLNDYEAEGLEPYVLPLAKRIETFRRLASHIGPERVVWRFDPLVLTGRLTADMLLERIGRLAEALGGQTRKLVISFADIECYRAVRLRLSRMGAGAREFAPEEMDEFAARLVERNKDWGLELSACAEDSELAGIAKSRCIDGHVLASCFGDDAELMEFLGGSTLFPGDAPVSVALKHQGQRKACGCIVSKDIGVYGTCQHGCRYCYACR", "soluble on expression in E. coli": "not soluble"}, {"sequence": "MGSDKIHHHHHHMAGEPRLGRTGPRVSRVGLGLWQFGSPMWGGKALSADVLARGLSIAVEEGINLLDTAEVYGMGSSERMLGEALKRLNAREDFVIVSKVAGFRSTAGDIVKGARGIAGRLSSAPDVILHHWPPPVYSRLCSVVRGLEQAVNEGLASYYGFSNYGEDLLGDALSCTRRLEPVADQILYNLAYRTPEQRLIPLLHQHGMTPIAWSPLAKGALAGFKGEPTRAQAGDPVFRTALEDTGLQEVLESVARRLGASKASVALAWVAYKGAVPIVGWRRPERVREAAAAARLKLSEEDVALLDEASKRYVTLWGSSYSPPGLRRIRLIPGALQRLAIRLWGGI", "soluble on expression in E. coli": "not soluble"}, {"sequence": "MGSDKIHHHHHHMAGVTAPLLGLQKKSLREQALSALRTAITSGELEPGRHLVETELSDMLQISRGTLREALRQLEQEGLLSAGPRGRLSVRHLDAKEIRDIYSVRAALESLAARTLCELPDRQHVIGSLRAAIGAMDAAAKGSLEDRIESDLEFHRTLCRLTGNETLLHSWESLEGSIRMSIMFAGLEKGVSNMSVDRHHDIVAAIETGDGSLARKTIREHMDTAADNLVA", "soluble on expression in E. coli": "not soluble"}, {"sequence": "MGSDKIHHHHHHMAHPPQIRIPATYLRGGTSKGVFFRLEDLPESCRVPGEARDRLFMRVIGSPDPYAAHIDGMGGATSSTSKCVILSKSSQPGHDVDYLYGQVSIDKPFVDWSGNCGNLSTGAGAFALHAGLVDPARIPEDGICEVRIWQANIGKTIIAHVPVSGGQVQETGDFELDGVTFPAAEIVLEFLDPSDDGEDGGAIFPTGNLVDDLEVPGVGTFKATMINAGIPTVFVNAEEIGYRGTELREEINGDPQQLARFERIRVAGALRMGLIKTPEEAATRQHTPKIAFVAPPRDYRTASGKLVAAGDIDLLVRALSMGKLHHAMMGTAAVAIGTAAAIPGTLVNLAAGGGERSAVRFGHPSGTLRVGAEASQANGEWTVTKAIMSRSARILMEGWVRVPGDAF", "soluble on expression in E. coli": "not soluble"}, {"sequence": "MGSDKIHHHHHHMAHTITIVGLGNYGIDDLPLGIYKFLKTQDKVYARTLDHPVIESLQDELTFQSFDHVYEAHDQFEDVYNDIVAQLVEAANEKDIVYAVPGHPRVAETTTVKLLALAKDNTDIDVKVLGGKSFIDDVFEAVNVDPNDGFTLLDATSLQEVTLNVRTHTLITQVYSAMVAANLKITLMERYPDDYPVQIVTGARSDGADNVVTCPLYELDHDENAFNNLTSVFVPKIITSTYLYHDFDFATEVIDTLVDEDKGCPWDKVQTHETLKRYLLEETFELFEAIDNEDDWHMIEELGDILLQVLLHTSIGKKEGYIDIKEVITSLNAKMIRRHPHIFGDANAETIDDLKEIWSKAKDAEGKQPRVKFEKVFAEHFLNLYEKTKDKSFDEASLKQWLEKGESNT", "soluble on expression in E. coli": "not soluble"}, {"sequence": "MGSDKIHHHHHHMAIAIDFGTSNTVIARWNPVTQQPETITLPGLSIQQSLNPPLIPSLVYVEDANQAKILIGQQVRDRGLDLKGDTRFFRSFKRGIGADIQGFLPELDGQIVTFEQVGQWFLTEVIQQLAPLEGGLDSLVLTVPVDSFEAYRYWLGQVCQALPVEQVRMLDEPTAAALGYGLADQEILLVVDFGGGTLDLSLVQLNKSAQTNTKPVGFLLKWGNKSLAEESKQKTKTARVLAKAGQNLGGTDIDNWLVDYFTKTQGLAVSPLTTRLAERIKIQLSTQNQASEVYFDDENFESYELELNRDTLESILKEHSFFEQLDDAMANLLQQARRQGIELADINAVLLVGGTVQLPAVQTWVKQYFQPDKIRCEKPFEAIAQGALQLSQGVEIKDFLYHSYGVRYWDRRNQRHSWHSIIKAGQGYPMTQPVELVLGASLENQPSIELILGELGTETGGTEVYFDGDRLITRRLDTGVTSVKPLNDKEGARTIAQLTPPGFPGSDRIKILFQVDEQRFLRITVEDLLTNDTLLENQLVAQLS", "soluble on expression in E. coli": "not soluble"}]}]}
